The target of this assay is T1, Amyloid-beta 1-42 (UniProt P05067 672-713).
T1 construct: domain: Amyloid-beta 1-42; Bought peptide; 1-42 counts on the Aβ peptide, not on APP; also called Aβ1-42
Description: SPR, BIAcore 2000; antibody captured, Aβ flowed over. The method, then: Antibody affinity (KD=Kd/Ka) was determined using a BlAcore biosensor 2000 and data analyzed with BlAevaluation (v. 3.1) software. A capture antibody (rabbit anti-mouse) was coupled via free amine groups to carboxyl groups on flow cell 2 of a biosensor chip (CM5) using N-ethyl-N-dimethylaminopropyl carbodiimide and N-hydroxysuccinimide (EDC/NHS). A non-specific rabbit IgG was coupled to flow cell 1 as a background control. Monoclonal antibodies were captured to yield 300 resonance units (RU). […] To regenerate the chip, bound anti-Aβ antibody was eluted from the chip using a wash with glycine-HCI (pH 2). A control injection containing no amyloid-beta served as a control for baseline subtraction.

From patent publication US20040192898A1 (published 2004) come the findings set out here.

T1 sequence (P05067 672-713 limits assumed): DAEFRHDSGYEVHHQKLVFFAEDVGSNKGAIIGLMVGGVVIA

B1: Humanized 266 antibody (antibody, human IgG1, kappa, V domains shown)
VH: EVQLVESGGGLVQPGGSLRLSCAASGFTFSRYSMSWVRQAPGKGLELVAQINSVGNSTYYPDTVKGRFTISRDNAKNTLYLQMNSLRAEDTAVYYCASGDYWGQGTLVTVSS
VL: DVVMTQSPLSLPVTLGQPASISCRSSQSLIYSDGNAYLHWFLQKPGQSPRLLIYKVSNRFSGVPDRFSGSGSGTDFTLKISRVEAEDVGVYYCSQSTHVPWTFGQGTKVEIKR
modifications: N-glycosylated at Asn 56 (fully) and Asn 292
notes: Human IgG1 (pVg1) / kappa, expressed in Sp2/0; also called Hu266
Turning to B1, the Kd turned out to be 4 pM.
